Reference: paper PMC12218921, “An adaptive peptide-binding site in ubiquitin receptor hRpn13 revealed by structural studies” (Nature Communications, 2025)
No end group written: not given here.

B1: EDGEGEE peptide (peptide)
peptide: EDGEGEE
notes: acidic peptide chosen by the authors; also called acidic peptide; source: synthetic peptide (GenScript)
B2: hRpn13 Pru (1–150) (domain or fragment, human)
chain: GPGSMTTSGALFPSLVPGSRGASNKYLVEFRAGKMSLKGTTVTPDKRKGLVYIQQTDDSLIHFCWKDRTSGNVEDDLIIFPDDCEFKRVPQCPSGRVYVLKFKAGSKRLFFWMQEPKTDQDEEHCRKVNEYLNNPPMPGALGASGSSGHELSAL
notes: four non-native residues (aG-bP-cG-dS) left at the N-terminus after PreScission cleavage of the purification tag; hRpn13 (ADRM1), human, residues 1-150 holding the Pru domain; 15N-labelled (M9 medium) for the NMR experiments, unlabelled (LB) for crystallography; S4-N20 are not seen in the electron density; also called hRpn13 (1–150); Pru-A; source: E. coli BL21(DE3) pLysS, purified (Talon resin, …)
B3: hRpn2 (940–953) (peptide)
peptide: QEPEPPEPFEYIDD
notes: source: synthetic peptide (GenScript Biotech; for the fluorescence polarization assay bought: New England Peptide)
B4: TAMRA-labeled hRpn2 (940–953) (peptide)
peptide: QEPEPPEPFEYIDD
modifications: also: TAMRA attached, position not given here
notes: also called TAMRA-hRpn2; source: bought: New England Peptide
B5: hRpn13_ΔMTT (domain or fragment, human)
chain: GSSGALFPSLVPGSRGASNKYLVEFRAGKMSLKGTTVTPDKRKGLVYIQQTDDSLIHFCWKDRTSGNVEDDLIIFPDDCEFKRVPQCPSGRVYVLKFKAGSKRLFFWMQEPKTDQDEEHCRKVNEYLNNPPMPGALGASGSSGHELSAL
notes: hRpn13 (ADRM1), human, hRpn13 (1-150) without M1-T3; 15N-labelled for NMR; also called hRpn13 Pru variant with ENT M1 – T3, aG, and bP deleted; source: E. coli BL21 (DE3), purified (glutathione sepharose, thrombin cleavage, Superdex 75); not shown: GST, N-terminal, cleaved

Columns and labels:
hRpn13_ΔMTT = biological target: B5; experiment: fluorescence polarisation; competition: unlabeled peptide at various concentrations preincubated with 80 nM hRpn13_ΔMTT, then 10 nM TAMRA-hRpn2 (940–953) added; PBS with 1 mM TCEP, room temperature; [Inhibitor] vs response (three parameters) fit; estimated EC50; details: both partners purified
[1] = biological target: the molecule itself; experiment: crystal structure; hRpn13 (1–150) at 560 μM in 20 mM HEPES pH 7.5, 100 mM NaCl, 1 mM TCEP; microbatch-under-oil at 4 °C with 0.1 M sodium acetate pH 4.6, 22% PEG3350; one molecule per asymmetric unit, ENT at the interface of Pru molecules of the lattice; 1.85 Å
K48-diUb^EDGEGEE = biological target: T1, K48-diUb^EDGEGEE (human, UniProt P0CG48 1-76; P0CG48 1-76, K48R, G76 joined by an isopeptide bond to K48 of the other ubiquitin | K48 joined by an isopeptide bond to G76 of Ub-K48R); experiment: NMR titration; 1H-15N HSQC of 0.1 mM 15N-labeled hRpn13_ΔMTT alone and with unlabeled ligand (peptides at varying molar ratios up to 20-fold excess; hRpn2 (940-953) or ubiquitin equimolar, alone or together with 20-fold EDGEGEE; K48-diUb at 4:1, 2:1 and 1:1 hRpn13 to diUb); NMR buffer (20 mM sodium phosphate pH 6.5, 50 mM NaCl, 1 mM TCEP, 10% D2O), 25 °C, 600 MHz; details: both partners purified
T1 construct: Ub-K48R (distal, by the methods): ubiquitin, human; Ub-EDGEGEE (proximal, by the methods): ubiquitin, human; 6-residue linker added to the ubiquitin C-terminal end; Two ubiquitins joined covalently K48-G76; The results call the extended moiety distal, the methods call it proximal; also called K48-linked diubiquitin with Ub-EDGEGEE; source: made enzymatically (E1 from R&D Systems, E2-25K) from …

K48-diUb^D77 = biological target: T2, K48-diUb^D77 (human, UniProt P0CG48 1-76; P0CG48 1-76, K48R, G76 joined by an isopeptide bond to K48 of the other ubiquitin | K48 joined by an isopeptide bond to G76 of Ub-K48R); experiment: as above; details: both partners purified
T2 construct: Ub-K48R (distal, by the methods): ubiquitin, human; Ub-D77 (proximal, by the methods): ubiquitin, human; additional aspartate at position 77 (Ub-D77); Two ubiquitins joined covalently K48-G76; The results call the extended moiety distal, the methods call it proximal; also called K48-linked diubiquitin; source: made enzymatically (E1 from R&D Systems, E2-25K) from ubiquitin proteins expressed in …

K48-diUb^ENT = biological target: T3, K48-diUb^ENT (human, UniProt P0CG48 1-76; P0CG48 1-76, K48R, G76 joined by an isopeptide bond to K48 of the other ubiquitin | K48 joined by an isopeptide bond to G76 of Ub-K48R); experiment: as above; details: both partners purified
T3 construct: Ub-K48R (distal, by the methods): ubiquitin, human; Ub-ENT (proximal, by the methods): ubiquitin, human; 6-residue linker added to the ubiquitin C-terminal end; Two ubiquitins joined covalently K48-G76; The results call the extended moiety distal, the methods call it proximal; also called K48-linked diubiquitin with Ub-ENT; source: made enzymatically (E1 from R&D Systems, E2-25K) from ubiquitin …

ubiquitin = biological target: T4, ubiquitin (human, UniProt P0CG48 1-76); experiment: as above; details: both partners purified
T4 construct: ubiquitin, human, the 76-residue cut product of the polyubiquitin precursor; source: E. coli Rosetta 2(DE3), untagged, purified (cation exchange, SEC)

[2] = biological target: B4; experiment: fluorescence polarisation; hRpn13_ΔMTT titrated against TAMRA-hRpn2 (940–953); PBS with 1 mM TCEP, room temperature; [Agonist] vs response (three parameters) fit; details: both partners purified

With PPEPFEYIDD (source: bought: New England Peptide) [hRpn2 (944–953)] the EC50 (hRpn13_ΔMTT) was 87 ± 6 µM.

B1 gave an EC50 (hRpn13_ΔMTT) of 637 ± 51 µM.

B2: binds [1].

For B3, the EC50 (hRpn13_ΔMTT) was 0.32 ± 0.02 µM.

B4: binds (hRpn13_ΔMTT).

B5: binds (K48-diUb^EDGEGEE); binds (K48-diUb^D77); binds (K48-diUb^ENT). For the same binder, the binding result (ubiquitin) was “binds” and the EC50 [2] was 43 ± 7 nM.
